Reference: patent US20240294650A1 (Alector, published 2024)
Where a chain is given by its changes, count along the chain named.

T1: human MerTK (human, UniProt Q12866 21-999)
T1 sequence: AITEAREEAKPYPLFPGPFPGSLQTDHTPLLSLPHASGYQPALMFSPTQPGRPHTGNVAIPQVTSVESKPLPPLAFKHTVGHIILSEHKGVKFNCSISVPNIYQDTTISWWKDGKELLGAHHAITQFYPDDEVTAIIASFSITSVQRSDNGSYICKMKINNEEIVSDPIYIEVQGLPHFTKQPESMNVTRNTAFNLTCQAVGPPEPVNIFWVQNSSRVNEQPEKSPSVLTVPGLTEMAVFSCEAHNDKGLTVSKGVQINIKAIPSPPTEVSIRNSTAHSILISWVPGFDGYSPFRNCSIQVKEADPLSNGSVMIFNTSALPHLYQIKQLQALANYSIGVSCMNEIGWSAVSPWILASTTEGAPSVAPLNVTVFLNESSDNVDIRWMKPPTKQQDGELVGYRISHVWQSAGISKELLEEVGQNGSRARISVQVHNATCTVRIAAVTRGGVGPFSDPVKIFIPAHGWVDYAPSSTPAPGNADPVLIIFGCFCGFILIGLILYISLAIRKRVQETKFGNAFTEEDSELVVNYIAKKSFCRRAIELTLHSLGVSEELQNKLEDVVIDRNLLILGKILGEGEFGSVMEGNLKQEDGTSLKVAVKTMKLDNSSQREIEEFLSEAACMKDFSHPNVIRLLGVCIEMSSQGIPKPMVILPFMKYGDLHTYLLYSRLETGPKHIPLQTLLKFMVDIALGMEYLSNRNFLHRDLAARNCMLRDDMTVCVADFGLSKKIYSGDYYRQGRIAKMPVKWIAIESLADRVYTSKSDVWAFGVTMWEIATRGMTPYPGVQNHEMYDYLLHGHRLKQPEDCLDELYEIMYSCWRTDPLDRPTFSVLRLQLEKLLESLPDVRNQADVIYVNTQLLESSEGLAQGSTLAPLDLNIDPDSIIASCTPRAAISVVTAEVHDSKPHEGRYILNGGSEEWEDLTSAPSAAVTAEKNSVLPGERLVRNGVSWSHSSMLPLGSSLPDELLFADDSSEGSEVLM

T2: Recombinant human MerTK-human Fc Chimera protein (human, UniProt Q12866 26-499, limits assumed)
T2 construct: bought construct; also called MerTK-Fc (R&D systems, Cat #391-MR-100)
T2 sequence: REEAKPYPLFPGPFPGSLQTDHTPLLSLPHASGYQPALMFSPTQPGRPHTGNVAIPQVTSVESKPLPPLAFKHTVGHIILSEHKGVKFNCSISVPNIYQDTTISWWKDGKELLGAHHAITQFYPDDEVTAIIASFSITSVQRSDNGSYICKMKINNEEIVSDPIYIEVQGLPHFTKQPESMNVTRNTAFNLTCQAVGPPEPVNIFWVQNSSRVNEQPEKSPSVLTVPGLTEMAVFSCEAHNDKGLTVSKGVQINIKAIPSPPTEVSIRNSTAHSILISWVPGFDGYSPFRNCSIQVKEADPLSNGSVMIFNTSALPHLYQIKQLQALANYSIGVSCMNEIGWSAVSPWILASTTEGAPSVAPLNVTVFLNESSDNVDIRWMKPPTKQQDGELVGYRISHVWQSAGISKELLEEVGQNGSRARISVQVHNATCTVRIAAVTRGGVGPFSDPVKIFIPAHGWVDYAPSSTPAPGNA

B1: MTK-215 (antibody, human IgG1, V domains shown)
VH: EVQLVESGGGLVKPGGSLKLSCAASGFIFSDYGMHWVRQAPEKGLEWVAYISSGSSTIYYGDTVKGRFTISRDNAKNTLFLQMTSLRSEDTAMYYCAKGGRYGAMDYWGHGTSVTVSS
VL: DIVLTQSPATLSVTPGDSVSLSCRASQSISNNLHWYQQKSHESPRLLIKNPSQSISGIPSRFGARGSGTDFTLIINSVETEDLGVYFCQQSNSWPFTFGSGTKLEIK
B2: MTK-212 (antibody, human IgG1, V domains shown)
VH: QVQLQQSGPELVKPGASVKISCKASGYAFSSSWVNWVKQRPGKGLEWIGRIYPGDGDSNYNGNFKGKATLTADKSSNTAYLQLSSLTSEDSAVYFCARKSHFIYYTLDYWGQGTPVTVSS
VL: DIVMTQSHKFKSTSVGDRVSIACKASQDVGTSVAWYQQKPGKSPKLLIYWASSRHTGVPDRFTGSGSGTDFTLTISNVQSEDLTDYFCQQYSTYPYTFGGGTKLEIK
B3: MTK-225 (antibody, human IgG1, V domains shown)
VH: EVQLQQSGPELVKPGASVKIFCKASGYTFTAYNMDWVKQSHGKSLEWIGDINPNNGGTIYNQKFKGKATLTVDKSSSTAYMELRSLTSEDTAVYYCARRRRYGNTYYWYFDVWGTGTTVTVSS
VL: DIQMTQSPASLSVSVGETVTITCRASENIYSSLAWYQQKQGKSPQLLVYAATNLADGVPSRFSGSGSGTQFYLKINGLQSEDFGSYYCQHFWGTSYTFGGGTKLEIK
B4: MTK-221 (antibody, human IgG1, V domains shown)
VH: QVTLKESGPGMLQSSQTLSLTCSFSGFSLSTSGMGVSWIRQPSGKGLEWLAHIYWDDDKRYNTSLQSRLTISKDTSRNQVFLKITSVDTADTATYFCGRLGAYSAFPYYFDYWGQGTTLTVSS
VL: DIQMTQSPSSLSASLGGKVTITCKASQDIHKHIAWYQHKPGKGPRLLIHYTSTLQPGIPSRFSGSGSGRDYSFSISNLEPEDLATYYCLQYDNLWTFGGGTKLEIK
B5: MTK-206 (antibody, human IgG1, V domains shown)
VH: QVQLQQSGAELARPGASVKMSCKASGYTFTSYTMHWVKQRPGQGLEWIGYINPSSGYIKNSQKFKDKATLTADKSSSTAYMQLSSLTSEDSAVYYCARTVYGYYGSSPDYWGQGTTLTVSS
VL: DIQMTQSPSSLSASLGERVSLTCRASQDIGSNLNWLQQEPDGTIKRLIYATSSLESGVPKRFSGSRSGSDYSLTISSLESEDFVDYYCLQYDSSPWTFGGGTKLEIK
B6: MTK-207 (antibody, human IgG1, V domains shown)
VH: QVQLKESGPGLVAPSQSLSITCTVSGISLTSYGVSWVRQPPGKGLEWLGIIWGDGSTNYHSALISRLSISKDNSKSQVFLKLNSLQTDDTATYYCAKGRYGNYEDWYFDVWGTGTTVTVSS
VL: DIQMTQSPASLSASVGETVTITCRASGNIHNYLAWYQQKQGKSPQLLVYNAKTLAAGVPSRFSGSGSGTQYSLKINSLQPEDFGSYYCQHFWSIPLTFGAGTKLELK
B7: MTK-208 (antibody, human IgG1, V domains shown)
VH: QVQLQQPGAELVVPGASVRLSCKASGYTFINYWMHWVKQRPGQGLEWIGEIDPSDSYANYNQKFKDKSTLSLDKSSSTAYMQLSSLTSEDSAVYYCARCDYYGRLDYWGQGTTLTVSS
VL: QVVLTQSPAIMSASPGEKVTITCSASSSVSYMLWFQQKPGTSPKLWIYSTSNLASGVPARFSGSGSGTSYSLTISRLEAEDAATYYCQQRSSYPPITFGAGTKLELK
B8: MTK-216 (antibody, human IgG1, V domains shown)
VH: EVQLVESGGGLVKPGGSLKLSCAASGFTFSDYGMHWVRQAPEKGLEWVAFISSGSTTIYYADTVKGRFTISRDNAKNTLILQMTSLRSEDTAIYYCTRGGFHLDYWGQGTTLTVSS
VL: SIMMTQSPSSLAVSAGEKVTMGCKSSQSVLYSANQQNYLAWYQQKPGQSLKLLIYWASTRESGVPDRFTGSGSGTDFTLTISSVQAEDLAVYYCHQYFSSWTFGGGTKLEIK
B9: MTK-202 (antibody, human IgG1, V domains shown)
VH: EVQLVESGGGLVKPGGSLKLSCAASGFTFSDFGMHWVRQVPEKGLEWVAFISGGSNTIYYTDTVKGRFTISRDNAKNTLFLQMTSLRSEDTAMYYCVRNGNSFAYWGQGTLVTVSA
VL: B8 VL with S1N, G22N, A33S, Q36K, L50P, S83N, V84I, V91I, S99F
B10: MTK-204 (antibody, human IgG1, V domains shown)
VH: B8 VH with F50Y, S55T, T56S, A61E, I80F, I93M, T97A, F101L, H102L, L103F
VL: B8 VL with S1N, G22S, A33S, Q36K, L50P, Y55Q, G74E, S82R
B11: MTK-231 (antibody, human IgG1, V domains shown)
VH: DVQLQESGPGLVKPSQSLSLTCSVTGYSITSGYYWNWIRQFPGNKLEWMGYISYDGTYNYHPSLKNRISITRDTSKNQFFLTLNSVTTEDTATFYCTRGGGYWGQGTSVTVSS
VL: DVVMTQTPLSLPVSLGDQASISCRSSQSLVHSDGNTYLHWYLQKPGQSPKLLIYKVSNRFSGVPDRFSGSGSGTDFTLKISRLEAEDLGIYFCSQTTHIPLTFGSGTKLEIK

These binders were tested against T1, human MerTK (assay: cell-based or functional assay).

Row | EC50 (nM), pAKT in SK-MEL-5 cells [nM] | Fold increase in PAKT over IgG control [fold] | Binder
1 | 208 | 2.6 | B1
2 | 96.9 | 3.3 | B2
3 | – | 4.5 | B3
4 | – | 4.4 | B4
5 | – | 3.1 | B5
6 | – | 1 | B6
7 | – | 2.6 | B7
8 | – | 3.2 | B8
9 | 1.01 | 3 | B9
10 | – | 3 | B10
11 | 0.65 | 3 | B11

The binders below were run against T2, Recombinant human MerTK-human Fc … (assay: blocking ELISA, Gas6-His on MerTK-Fc, Ab 66.6 nM, isotype=100%).
Method: (§1) Briefly, rabbit anti-human IgG antibody (Jackson ImmunoResearch, Cat #309-005-008) was coated at 2 μg/ml onto high-protein binding plates at 4° C. overnight. After washing with 0.05% Tween20 in PBS three times, 5% BSA in PBS was added for 1 hour. Recombinant human MerTK-human Fe Chimera protein (R&D systems, Cat #391-MR-100) was added at 2 μg/ml for 1 hour and plates were washed before the addition of 40 μl of anti-MerTK hybridoma supernatants and 40 μl of His tag-conjugated recombinant Gas6 (R&D systems, Cat #885-GSB-050) at 3 μg/ml or His tag-conjugated recombinant ProS (R&D systems, Cat #9489-PS-100) at 20 μg/ml. After a further incubation for 1 hour, plates were washed and incubated for 1 hour with HRP-conjugated anti-6×His tagged antibody (Abcam, Cambridge, MA, Cat #ab1187). Plates were then washed and an HRP substrate, TMB, was added to develop the plates. The reaction was stopped by adding 50 μl 2N H₂SO₄ and the OD was measured using a spectrophotometer (BioTek).
(§2) Anti-MerTK antibodies were titrated to a final concentration from 66.6 nM to 4 pM and tested against anti-human MerTK antibody M6 (disclosed in WO2016/106221) or isotype control antibody.

Row | Percent Gas6 ligand binding [%] | Binder
12 | 110 | B1
13 | 122 | B2
14 | 120 | B3
15 | 106 | B4
16 | 103 | B5
17 | 116 | B6
18 | 107 | B7
19 | 104 | B8
20 | 101 | B9
21 | 121 | B10
22 | 116 | B11

The binders below were run against T2, Recombinant human MerTK-human Fc … (assay: blocking ELISA, ProS-His on MerTK-Fc, Ab 66.6 nM, isotype=100%).
Method: as §1, §2

Row | Percent ProS ligand binding [%] | Binder
23 | 81.6 | B1
24 | 45.8 | B2
25 | 186 | B3
26 | 72.8 | B4
27 | 132 | B5
28 | 95.5 | B6
29 | 71.7 | B7
30 | 72.8 | B8
31 | 53.4 | B9
32 | 101 | B10
33 | 152 | B11
